# Reference: PMC2151661
# Key:
# [1] = target: human ENaC αβγ_(V182G;V193G) (human) (UniProt P37088)
# [2] = target: wild-type human epithelial Na+ channel (α, β, γ ENaC) (human) (UniProt P37088)
# [3] = target: human ENaC αβγ_(V182G;V193G) (human) (UniProt P37088); remark: listed apart in the source
# [4] = target: wild-type human epithelial Na+ channel (α, β, γ ENaC) (human) (UniProt P37088); remark: listed apart in the source
# [5] = target: wild-type human epithelial Na+ channel (α, β, γ ENaC) (human) (UniProt P37088); remark: listed apart in the source
# [6] = target: human ENaC αβγTh (thrombin consensus sequence LVPRG at γ186-190) (human) (UniProt P37088)
# [7] = target: human ENaC αβγ_(V182G;V193G) (human) (UniProt P37088); remark: listed apart in the source
# [8] = target: wild-type human epithelial Na+ channel (α, β, γ ENaC) (human) (UniProt P37088); remark: listed apart in the source
# [9] = target: human ENaC αβγ_(V182G;V193G) (human) (UniProt P37088); remark: listed apart in the source
# [10] = target: wild-type human epithelial Na+ channel (α, β, γ ENaC) (human) (UniProt P37088); remark: listed apart in the source
# [11] = target: human ENaC αβγ_(A190G) (human) (UniProt P37088)
# [12] = target: human ENaC αβγ_(V182G;V193G) (human) (UniProt P37088); remark: listed apart in the source
# [13] = target: human ENaC αβγ_(A190G) (human) (UniProt P37088); remark: listed apart in the source
# [14] = target: wild-type human epithelial Na+ channel (α, β, γ ENaC) (human) (UniProt P37088); remark: listed apart in the source
substance,measurement,setting,value
human neutrophil elastase (from UniProt P08246 30-267) (enzyme),K1/2 (NE concentration at half maximal stimulation of ΔIPR^Norm),[1],510 nM
same,K1/2 (NE concentration at half maximal stimulation of ΔIPR^Norm),[2],100 nM
same,apparent KM from kobs (1/τ) of INa activation against NE concentration (Eq. 8),[2],0.57 µM
same,"ΔIPR^Norm against NE concentration, 30 to 1,000 nM, aprotinin-treated FRT cells",[3],0.52
same,"ΔIPR^Norm against NE concentration, 30 to 1,000 nM, aprotinin-treated FRT cells",[4],0.75
same,"ΔIPR^Norm, 300 nM NE, aprotinin-treated FRT cells (comparison with αβγTh)",[5],0.6
human α thrombin (enzyme),"ΔIPR^Norm, 300 nM TH, aprotinin-treated FRT cells",[5],0.1
same,K1/2 (TH concentration at half maximal stimulation of ΔIPR^Norm),[6],14.8 nM
same,apparent KM from kobs of INa activation against TH concentration (Eq. 8),[6],0.34 µM
porcine pancreatic elastase (from UniProt P00772 27-266) (enzyme),K1/2 (PE concentration at half maximal stimulation of ΔIPR^Norm),[7],35 nM
same,apparent KM from kobs of INa activation against PE concentration (Eq. 8),[7],0.29 µM
same,K1/2 (PE concentration at half maximal stimulation of ΔIPR^Norm),[8],77 nM
same,apparent KM from kobs of INa activation against PE concentration (Eq. 8),[8],0.204 µM
same,"time constant τ of INa activation by 300 nM PE, aprotinin-treated FRT cells",[9],3.6 min
same,"time constant τ of INa activation by 300 nM PE, aprotinin-treated FRT cells",[10],2 min
same,K1/2 (PE concentration at half maximal stimulation of ΔIPR^Norm),[11],1140 nM
same,"ΔIPR^Norm, 300 nM PE, aprotinin-treated FRT cells (comparison with αβγTh)",[5],0.7
same,"time constant τ of INa activation by 1,000 nM PE, aprotinin-treated FRT cells",[12],2.17 min
same,"ΔIPR^Norm, 1,000 nM PE, aprotinin-treated FRT cells",[12],0.89
same,"ΔIPR^Norm, 1,000 nM PE, aprotinin-treated FRT cells",[13],0.26
same,"time constant τ of INa activation by 1,000 nM PE, aprotinin-treated FRT cells",[14],1.94 min
same,"ΔIPR^Norm, 1,000 nM PE, aprotinin-treated FRT cells",[14],0.7
